Kd data for one molecule are collected here from paper doi:10.1101/2023.08.22.554218 (bioRxiv, 2023).

The experiment has as its target T1, Recombinant human PDZD8 (1,28-) - FLAG (human, UniProt Q8NEN9 1-1154, (1, 28-)).
T1 sequence (looked up): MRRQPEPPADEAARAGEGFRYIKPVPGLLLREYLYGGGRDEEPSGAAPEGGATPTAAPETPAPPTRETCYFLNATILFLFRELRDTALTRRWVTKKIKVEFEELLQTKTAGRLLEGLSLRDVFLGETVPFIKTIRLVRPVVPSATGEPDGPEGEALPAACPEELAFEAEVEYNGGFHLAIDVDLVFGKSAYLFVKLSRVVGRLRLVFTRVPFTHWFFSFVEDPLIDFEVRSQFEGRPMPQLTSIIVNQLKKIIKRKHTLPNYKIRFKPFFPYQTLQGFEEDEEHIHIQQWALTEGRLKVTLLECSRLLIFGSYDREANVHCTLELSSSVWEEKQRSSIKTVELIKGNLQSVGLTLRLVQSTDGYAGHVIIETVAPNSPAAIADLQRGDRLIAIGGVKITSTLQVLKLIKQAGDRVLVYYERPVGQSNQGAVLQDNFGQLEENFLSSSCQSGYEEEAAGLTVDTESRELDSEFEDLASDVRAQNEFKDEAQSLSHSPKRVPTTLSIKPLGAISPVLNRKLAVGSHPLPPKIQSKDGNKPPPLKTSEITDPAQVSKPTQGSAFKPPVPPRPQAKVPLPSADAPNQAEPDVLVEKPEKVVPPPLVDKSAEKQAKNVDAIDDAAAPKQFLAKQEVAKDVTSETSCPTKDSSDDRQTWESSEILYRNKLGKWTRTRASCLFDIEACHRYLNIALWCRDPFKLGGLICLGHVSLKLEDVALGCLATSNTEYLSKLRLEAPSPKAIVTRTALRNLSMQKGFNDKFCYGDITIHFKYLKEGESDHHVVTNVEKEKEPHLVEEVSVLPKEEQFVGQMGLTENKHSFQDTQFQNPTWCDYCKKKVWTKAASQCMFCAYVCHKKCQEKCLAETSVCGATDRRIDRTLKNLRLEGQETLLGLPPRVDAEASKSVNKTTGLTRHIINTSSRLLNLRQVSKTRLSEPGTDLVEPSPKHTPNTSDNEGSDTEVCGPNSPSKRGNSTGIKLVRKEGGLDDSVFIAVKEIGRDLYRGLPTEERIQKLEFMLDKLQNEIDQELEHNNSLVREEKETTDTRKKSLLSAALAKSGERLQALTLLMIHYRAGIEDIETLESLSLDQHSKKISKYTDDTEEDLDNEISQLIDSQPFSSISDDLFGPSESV
The experiment in a line: SPR. For orientation: In SPR one partner is held on a chip, and binding of the other changes the refractive index at the surface.

B1: Recombinant human FKBP8 (1-380) - Histag (domain or fragment, UniProt Q14318 1-380, looked up)
chain: MASCAEPSEPSAPLPAGVPPLEDFEVLDGVEDAEGEEEEEEEEEEEDDLSELPPLEDMGQPPAEEAEQPGALAREFLAAMEPEPAPAPAPEEWLDILGNGLLRKKTLVPGPPGSSRPVKGQVVTVHLQTSLENGTRVQEEPELVFTLGDCDVIQALDLSVPLMDVGETAMVTADSKYCYGPQGRSPYIPPHAALCLEVTLKTAVDGPDLEMLTGQERVALANRKRECGNAHYQRADFVLAANSYDLAIKAITSSAKVDMTFEEEAQLLQLKVKCLNNLAASQLKLDHYRAALRSCSLVLEHQPDNIKALFRKGKVLAQQGEYSEAIPILRAALKLEPSNKTIHAELSKLVKKHAAQRSTETALYRKMLGNPSRLPAKCPG
As a reminder, the Kd is the free concentration of one partner at which half of the binding sites on the other are occupied at equilibrium, for simple one-to-one binding. For the molecule B1, the Kd was found to be 142 µM.
